Results taken from publication PMC6395885.

Columns and labels:
[1] = molecular target: protein kinase A (PKA) regulatory subunit RI (human (endogenous in HPAEC)) (UniProt P10644); test: non-reducing SDS-PAGE with Western blot
[2] = molecular target: phosphorylated cAMP response element-binding protein (CREB) (human (endogenous in HPAEC)); test: co-IP
Sequence of phosphorylated cAMP response element-binding protein (CREB) (human (endogenous in HPAEC)) (P16220 whole entry): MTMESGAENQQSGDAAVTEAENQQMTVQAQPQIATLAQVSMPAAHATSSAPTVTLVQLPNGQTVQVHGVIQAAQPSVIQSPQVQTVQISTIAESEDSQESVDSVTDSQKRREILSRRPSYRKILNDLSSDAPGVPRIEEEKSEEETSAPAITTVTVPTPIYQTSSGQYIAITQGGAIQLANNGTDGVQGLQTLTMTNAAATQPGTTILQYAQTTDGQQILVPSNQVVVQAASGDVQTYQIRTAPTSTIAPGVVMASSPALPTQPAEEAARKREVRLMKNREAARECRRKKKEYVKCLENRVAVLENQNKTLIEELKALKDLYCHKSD

| fold change of the dimer band, 100 µM H2O2 against 0 µM H2O2 [1] [fold] | fold change of co-precipitated Ref-1, hypoxia against normoxia [2] [fold] | Substance |
| --- | --- | --- |
| 3.3 |  | protein kinase A (PKA) regulatory subunit RI (from UniProt P10644 1-381) (natural protein) |
|  | 1.81 | redox factor 1 (Ref-1) (from UniProt P27695 1-318) (natural protein) |
